“And” between values parts separate entries of the source, which are not always exact repeats. Equal values may be shown once. Read-outs that look alike come from different tables or passages of the source.
Assays:
Experiment in all cases: cell-based or functional assay
[1] = biological target: BK virus VP1 protein, genotype II (BK virus)
[2] = biological target: BK virus VP1 protein, genotype III (BK virus)
[3] = biological target: BK virus VP1 protein, genotype IV (BK virus)
[4] = biological target: BK virus VP1 protein, genotype II (BK virus); remark: listed apart in the source
[5] = biological target: BK virus VP1 protein, genotype III (BK virus); remark: listed apart in the source
[6] = biological target: BK virus VP1 protein, genotype IV (BK virus); remark: listed apart in the source

| Binder | EC50, pseudovirus neutralization [1] | EC50, pseudovirus neutralization [2] | EC50, pseudovirus neutralization [3] | EC50, pseudovirus neutralization (mAb mixed with irrelevant isotype matched mAb M2) [4] | EC50, pseudovirus neutralization (mAb mixed with irrelevant isotype matched mAb M2) [5] | EC50, pseudovirus neutralization (mAb mixed with irrelevant isotype matched mAb M2) [6] | EC50, pseudovirus neutralization [4] | EC50, pseudovirus neutralization [5] | EC50, pseudovirus neutralization [6] |
| --- | --- | --- | --- | --- | --- | --- | --- | --- | --- |
| 7A4 (antibody, V domains shown) VH: QVQLVESGGDLVKPGGSLRLSCVASGFTFSDYYMNWIRLPPGKGLEWISYIDSSAGAIYYADSVKGRFTVSRDDAKNSLFLHMNSLRADDTAVYYCVRERRDGHKIFDYWGPGTLVTVSS VL: DIVMTQSPDSLAVSLGERATINCKSSQNILYSSNNKNYLAWYQQKAGQPPKLLIFWSSIRESGVPDRFSGSGSGTDFTLTISSLQAEDVAVYYCQQYYSSPYNFGRGTTLEIK | 0.0132 nM | 0.0081 nM | 0.0251 nM | – | – | – | – | – | – |
| 2F7 (antibody, V domains shown) VH: QVQLVESGGGLVKPGGSLRLSCVASGFTFSDYYMNWIRLPPGRGLQWISYIDSSAGAIYYADSVKGRFTVSRDDAKNSLYLQMNSLRADDTAVYYCARERRDGHKIFDWWGQGTLVTVSS VL: DIVMTQSPDSLAVSLGERATINCKSSQNILYTSNNKNYLGWYQQKAGQPPKLLIYWSSTRNSGVPDRFSGSGSGTDFTLTISSLQAEDVAVYYCHQYYSSPYTFGQGTNLEIK | 0.0011 nM | 0.0022 nM | 0.0724 nM | – | – | – | – | – | – |
| 9B4 (antibody, V domains shown) VH: QVQLVESGGDLVKPGGSLRLSCVASGFTFSDYYMNWIRLPPGKGLEWISYIDSSAGAIYYADSVKGRFTVSRDDAKNSLFLHMNSLRADDTAVYYCARERREGHKIFDFWGPGTLVTVSS VL: DIVMTQSPDSLALSLGERATINCKSSQNILYSSNNKNYLACYQQKAGQPPKLLIFWSSTRESGVPDRFSGSGSGTDFTLTISSLQAEDVAVYYCQQYYSSPYNFGRGTTLEIK | 0.0152 nM | 0.0118 nM | 0.0118 nM | – | – | – | – | – | – |
| 2H1 (antibody, V domains shown) VH: QVQLVESGGDLVKPGGSLRLSCVASGFTFSDYYMNWIRLPPGKGLEWISYIDSSAGAIYYADSVKGRFTVSRDDAKNSLFLHMNSLRADDTAVYYCARERRDGHKIFDCWGPGTLVTVSS VL: DIVMTQSPDSLAVSLGERATINCKSSQNILYSSNNKNYLAWYQQKTGQPPKLLIFWSSTRESGVPDRFSGSGSGTDFTLTISSLQAEDVAVYYCQQYYSSPYNFGRGTTLEIK | – | – | 0.0728 nM and 0.0815 nM | – | – | – | – | – | – |
| 8D10 (antibody, V domains shown) VH: QVHLVESGGDLVKPGGSLRLSCVASGFTFSDYYMNWIRLPPGKGLEWISYIDSSAGAIYYADSVKGRFTVSRDDAKNSMFLHMNSLRADDTAVYYCARERRDGHKIFDYWGPGTLVTVSS VL: DIVMTQSPDSLAVSLGERATINCKSSQNILYSSNNKNYLAWYQQKAGQPPKLLIFWSSTRESGVPDRFSGSGSGTDFTLTISSLQAEDVAVYYCQQYYSSPYNFGRGTTLEIK | 0.0492 nM | 0.029 nM | 0.0894 nM | – | – | – | – | – | – |
| 8A11 (antibody, V domains shown) VH: QVQLVESGGDLVKPGGSLRLSCVASGFTFSDYYMNWIRLPPGKGLEWISYIDSSAGATYYADSVKGRFTVSRDDAKNSLFLHMNSLRAEDTAVYYCARERRSGHKIFDCWGPGTLVTVSS VL: DIVMTQSPDSLAVSLGERATINCKSSQNILYSSNNKNYLAWYQQKAGQPPKLLIFWSSTRESGVPDRFSGSGSGTDFTLTISSLQAEDVAVYYCQQYYSSPYNFGRGTTLEIK | 0.0014 nM | 0.0315 nM | 0.0948 nM | – | – | – | – | – | – |
| 5A8 (antibody, V domains shown) VH: QVQLVESGGDLVKPGGSLRLSCVASGFTFSDYYMNWIRLPPGRGLEWISYIDSSAGAIYYADSVKGRFTVSRDDAKKSLFLYMNSLRADDTAVYYCARERRDGHKIFDYWGPGTLVTVSS VL: DIVMTQSPDSLAVSLGERATINCKSSQNILYSSNNKNYLAWYQQKAGQPPKLLIFWSSTRESGVPDRFSGSGSGTDFTLTISSLQAEDVAVYYCHQYYSSPYNFGRGTTLEIK | 0.0009 nM | 0.0039 nM | 0.0774 nM | – | – | – | – | – | – |
| 4F7 (antibody, V domains shown) VH: QVQLVESGGDLVKPGGSLRLSCVASGFTFSDYYMNWIRLPPGKGLEWISYIDSSAGAIYYADSVKGRFTVSRDDAKNSLFLHMNNLRADDTAVYYCARERRDGHKIFDCWGPGTLVTVSS VL: DIVMTQSPDSLAVSLGERATINCKSSQNILYSSNNKNYLAWYQQKAGQPPKLLIFWSSTRESGVPDRFSGSGSGTDFTLTISSLQAEDVAVYYCQQYYSSPYNFGRGTTLEIK | 0.0319 nM | 0.0143 nM | 0.0416 nM | – | – | – | – | – | – |
| 1H10 (antibody, V domains shown) VH: QVHLVESGGDLVKPGGSLRLSCVASGFTFSDYYMNWIRMPPGKGLEWISYIDSSAGAIYYADSVKGRFTVSRDDAKNSLFLHMNNLRADDTAVYYCARERRDGHKIFDCWGPGTLVTVSS VL: DIVMTQSPDSLAVSLGERATINCKSSQNILYSSNNKNYLAWYQQKAGQPPKLLIFWSSTRESGVPDRFSGSGSGTDFTLTISSLQAEDVAVYYCQQYYSSPYNFGRGTTLEIK | 0.0028 nM | 0.0397 nM | 0.107 nM | – | – | – | – | – | – |
| 1E2 (antibody, V domains shown) VH: QVQLVESGGDLVKPGGSLRLSCVASGFTFSDYYMNWIRLPPGKGLEWVSYIDSSAGAIYYADSVRGRFTVSRDDAKNSLFLHMNSLRADDTAVYYCARERRDGHKIFDCWGPGTLVTVSS VL: DIVMTQSPDSLAVSLGERATINCKSSQNILYSSNNKNYLAWYQQKAGQPPKLLIFWSSTRESGVPDRFSGSGSGTDFTLTINSLQAEDVAVYYCQQYYSSPYNFGRGTTLEIK | 0.0332 nM | 0.0081 nM | 0.143 nM | – | – | – | – | – | – |
| 6H12 (antibody, V domains shown) VH: EVQLVESGGGLVQPGGSLRLSCAASGFTFSSYEMNWVRQAPGKGLEWVSYISSGGSSIKYADSVRGRFAFSRDNAENSVHLQMNSLRAEDTAVYYCARVGGSYYYSYAMDVWGQGTAVTVSS VL: DIQLTQSPSFLSASVGDRVTITCWASQDISSYLAWYQQKPGKAPKLLIYAASTLQSGVPSRFTGSGSGTEFTLTISSLQPEDFATYYCQQPHNSPFSFGPGTKVDVK | 0.0109 nM | 0.127 nM | 2.21 nM | 0.0024 nM | 0.172 nM | 0.944 nM | – | – | – |
| 11D12 (antibody, V domains shown) VH: EVQLVESGGGLVQPGGSLRLSCAASGFTFSSYEMNWVRQAPGKGLEWVSYISSGGSSIKYADSVRGRFTFSRDNAENSVFLQMNSLRGEDTAVYYCARVGGSYYYSYAMDVWGQGTAVTVSS VL: DIQLTQSPSFLSASVGDRVTITCWASQDISSYLAWYQQKPGKAPKLLIYAASTLQSGVPSRFSGSGSGTEFTLTISSLQPEDFATYYCQQPNNYPFSFGPGTKVDVK | 0.0095 nM | 6.38 nM | > 6.67 nM | – | – | – | – | – | – |
| 7H8 (antibody, V domains shown) VH: EVQLLESGGGLVQPGGSLRLSCAASGFAFHTYDMTWVRQAPGKGLEWVSGVVGSGINTYYADSVKGRFTISRDNSKSTLYLQMNSLRAEDTAVYYCAKDSSSWFSLHYWGQGTLVTVSS VL: DIQMTQSPSTLSASVGDRVTITCRASQSISNWLAWYQQKPGKAPKLLIYKASSLESGVPSRFSGSGSGTDFTLTISSLQPDDFASYYCQQYRSYAYTFGQGTKLEIT | 0.05 nM | 0.0334 nM | 0.0943 nM | – | – | – | – | – | – |
| 14F5 (antibody, V domains shown) VH: EVQLLESGGGLVQPGGSLRLSCAVSGFTFSSFAMSWVRQAPGKGLEWVSGISASGGTTNYADSVKGRFTISRDNSKNTLYLQMSSLRAEDTAEYYCAKDRFLEWVEGFDPWGQGILVTVSP VL: DIQMTQSPSSLSASVGDRVTITCRASQSIGRFLIWYQQKPGKAPKLLLYATSSLQSGVPARFTGSGSGTDFTLTIGSLQPEDFATYYCQQSYITPLTFGGGTKVEIK | 0.0131 nM | 0.0215 nM | 0.0671 nM | – | – | – | – | – | – |
| 15C10 (antibody, V domains shown) VH: EVQLLESGGGLVQPGGSLRLSCAASGFTFSSFAMSWVRQAPGKGLEWVSGISASGGTTNYADSVKGRFTISRDNSKNTLYLQMSSLRAEDTAEYYCAKDRFLEWVEGFDPWGQGILVTVSP VL: DIQMTQSPSSLSASVGDRVTITCRASQSIGRFLIWYQQKPGKAPKLLLYATSSLQSGVPARFTGSGSGTDFTLTIGSLQPEDFATYYCQQSYITPLTFGGGTKVEIK | 0.0131 nM | 0.0211 nM | 0.0423 nM | – | – | – | 0.00058 nM | 0.00186 nM | 0.0023 nM |
| 9G9 (antibody, V domains shown) VH: EVQLLESGGGLVQPGGSLRLSCAASGFTFHNYAMSWVRQAPGKGLEWVSGISGSGGTAYYADSVKGRFTISRDNSKNTLYLQMNSLRADDTALYYCAKDRFLEWVEGFDSWGQGTLVTVSS VL: DIQMTQSPSSLSASVGDRVTITCRASQSIGSFLIWYQQKPGKAPKLLIYAASSLQSGVPSRFSGSGSGTDFTLIISSLQPEDFATYYCQQSYNTPLTFGGGTKVEIK | 0.0032 nM | 1.7 nM | 0.11 nM | 0.0023 nM | 1.29 nM | 0.196 nM | – | – | – |

Source: patent US20250304658A1 (ICAHN SCHOOL OF MEDICINE AT MOUNT SINAI, published 2025)
